Sequences and labels used below:
B1: Zinc finger MYM-type protein 2, residues 463 to 506; numbered along this chain, Q9UBW7 (parent)
chain: IMNCCEQCGEYLPSKGAGNNVLVIDGQQKRFCCQSCVSEYKQVG

We go through 57 variants from the Human Domainome abundance scans (Beltran et al. 2025).

± gives the uncertainty stated by the source.

The variants in this data set derive from B1. Briefly: abundance fitness (aPCA) (normalised: wild type 0, dead -1); higher = more abundant; growth selection in yeast, the domain comes from the species named. The conditions noted are these: Homo sapiens.
For the variant IMNCCEQCGEYLPSKGAGNNVLVIWGQQKRFCCQSCVSEYKQVG [D25W], the abundance fitness was -0.618 ± 0.21. For the variant IMNCCEQCGEYLPSKGAGNNVLVIHGQQKRFCCQSCVSEYKQVG [D25H], the abundance fitness was found to be 0.126 ± 0.18. Regarding IMNCCEQCGEYLPSKGAGRNVLVIDGQQKRFCCQSCVSEYKQVG [N19R], the abundance fitness was -0.249 ± 0.087. As for IMNCCEQCGEYLPSKGAGENVLVIDGQQKRFCCQSCVSEYKQVG [N19E], the abundance fitness worked out at 0.338 ± 0.14. Turning to IMNCCEQCGEYLPSKGAGQNVLVIDGQQKRFCCQSCVSEYKQVG [N19Q], the abundance fitness was -0.107 ± 0.12. In the case of IMNCCEQCGEYLPSKGAGNNVLVIDGQQKRFCDQSCVSEYKQVG [C33D], the abundance fitness came to 0.051 ± 0.11.

For IMNCCEQCGEYLPSKGAGNNVLVIDGQQKRFCFQSCVSEYKQVG [C33F], the abundance fitness was -0.517 ± 0.18. The result for IMNCCEQCGEYLPSKGAGNNVLVIDGQQKRFCQQSCVSEYKQVG [C33Q] reads -0.086 ± 0.13; that for IMNCCEQCGEYLPSKGAGNNVLVIDGQQKDFCCQSCVSEYKQVG [R30D], 0.165 ± 0.12; that for IMNCCEHCGEYLPSKGAGNNVLVIDGQQKRFCCQSCVSEYKQVG [Q7H], -0.076 ± 0.12. The result for IMNCCEQCGEYLPSKGAGNNVLVIDGQQKRFCCQSCVSEYGQVG [K41G] reads 0.042 ± 0.09; that for IMNCCEQCGEYLPSKGAGNNVLVIDGQQKRFCCQSCVSEYVQVG [K41V], -0.221 ± 0.094. The result for IMNCCEQCGEYLPSKGAGNNVLVIDGQQKRFCCQSCVSEYKQVP [G44P] reads -0.217 ± 0.4; that for IMNCCEQCGEYLPSKGAGNNVLVIDGQQKRFCCQSCVSEYKQVQ [G44Q], -0.471 ± 0.37. As for IMNCCEQCGEYLPSKGAGNNVWVIDGQQKRFCCQSCVSEYKQVG [L22W], the abundance fitness was -0.187 ± 0.13.

Turning to IMNCCEQCGEYLPSKGAGNNVCVIDGQQKRFCCQSCVSEYKQVG [L22C], the abundance fitness is -0.258 ± 0.13. As to IMNCCEQCGEYLPSKGAGNNVFVIDGQQKRFCCQSCVSEYKQVG [L22F], the abundance fitness was -0.184 ± 0.35. Take IMNCCEQCGEYLPSKGAGNNVIVIDGQQKRFCCQSCVSEYKQVG [L22I]: the abundance fitness is -0.142 ± 0.18.

IMNCCEQCGEYLPSKGAGNNVAVIDGQQKRFCCQSCVSEYKQVG [L22A]: the abundance fitness was -0.072 ± 0.088.

On to IMNCCEQCGEYLPSKGAGNNVNVIDGQQKRFCCQSCVSEYKQVG [L22N], for which the abundance fitness was -0.163 ± 0.41. Turning to IMNCCEQLGEYLPSKGAGNNVLVIDGQQKRFCCQSCVSEYKQVG [C8L], the abundance fitness is -1.05 ± 0.11. As to IMNCCEQPGEYLPSKGAGNNVLVIDGQQKRFCCQSCVSEYKQVG [C8P], the abundance fitness is -0.775 ± 0.097.

For IMNCCEQCGEYLPSKWAGNNVLVIDGQQKRFCCQSCVSEYKQVG [G16W], the abundance fitness is -0.319 ± 0.093. In the case of IMNCCEQCGEYLPSKRAGNNVLVIDGQQKRFCCQSCVSEYKQVG [G16R], the abundance fitness is -0.562 ± 0.078. Take IMNCCGQCGEYLPSKGAGNNVLVIDGQQKRFCCQSCVSEYKQVG [E6G]: the abundance fitness is -0.184 ± 0.076. On to IMNCCEQCGEALPSKGAGNNVLVIDGQQKRFCCQSCVSEYKQVG [Y11A], for which the abundance fitness turned out to be 0.176 ± 0.092. On to IMNCCEQCGEPLPSKGAGNNVLVIDGQQKRFCCQSCVSEYKQVG [Y11P], for which the abundance fitness is 0.144 ± 0.088. Consider IMNCCEQCGEKLPSKGAGNNVLVIDGQQKRFCCQSCVSEYKQVG [Y11K], for which the abundance fitness came out at 0.361 ± 0.13.

On to IMNCCEQCGEVLPSKGAGNNVLVIDGQQKRFCCQSCVSEYKQVG [Y11V], for which the abundance fitness came out at 0.117 ± 0.077. In the case of IMNCCEQCGEYLPSKGAGNNVLVIDGQQKRFCCQSCVSCYKQVG [E39C], the abundance fitness was determined as 0.204 ± 0.11.

For IMNCCEQCGEYLPSKGAGNNVLVIDGQQKRFCCQSCVSKYKQVG [E39K], the abundance fitness is 0.33 ± 0.12. Turning to IMNCCEQCGEYLPSKGAGNNVLVIDGQQKRFCCQSCVSSYKQVG [E39S], the abundance fitness was found to be 0.054 ± 0.1. Take IANCCEQCGEYLPSKGAGNNVLVIDGQQKRFCCQSCVSEYKQVG [M2A]: the abundance fitness is -0.162 ± 0.1.

Take IMNCCEQCGEYLPSKGAGNNVLVIDGQQKRFCCQSCFSEYKQVG [V37F]: the abundance fitness was -0.259 ± 0.16. The result for IMNCCEQCGEYLPSKGAGNNVLVIDGQQKRFCCQSCMSEYKQVG [V37M] reads 0.181 ± 0.14; that for IMNCCEQCGEYLPTKGAGNNVLVIDGQQKRFCCQSCVSEYKQVG [S14T], -0.09 ± 0.12.

For IMNCCEQCGEYLPSKGAGNNVLVIDGQWKRFCCQSCVSEYKQVG [Q28W], the abundance fitness is -0.405 ± 0.094. Take IMNCCEQCGEYLPSKGAGNNVLVIDGQHKRFCCQSCVSEYKQVG [Q28H]: the abundance fitness stood at 0.117 ± 0.2. As for IMNCCEQCGEYLPSKGAGNNVLVIDGQQKRFCCNSCVSEYKQVG [Q34N], the abundance fitness is -0.028 ± 0.25. For the variant IMNCCEQCGEYLPSKGAGNNVLVIDGQQKRFCCYSCVSEYKQVG [Q34Y], the abundance fitness is -0.615 ± 0.47. Consider IMNCCEQCGEYLPSKGAGNNVLVIDGQQKRFCCFSCVSEYKQVG [Q34F], for which the abundance fitness was -0.039 ± 0.13. Turning to IMNCCEQCGEYLPSKGAGNNVLVIDGQQKRFCCLSCVSEYKQVG [Q34L], the abundance fitness was -0.223 ± 0.097. As to EMNCCEQCGEYLPSKGAGNNVLVIDGQQKRFCCQSCVSEYKQVG [I1E], the abundance fitness was -0.012 ± 0.14. The result for IMNCCEQCGEYLPSKGAGNNVLVIDGQQKRFSCQSCVSEYKQVG [C32S] reads -0.398 ± 0.084. The result for IMNCCEQCGEYLPSKGAGNNVLVIDGQQKRFLCQSCVSEYKQVG [C32L] reads -0.451 ± 0.089.

Take IMNCCEQCGEYLPSKGAGNNVLVIDGQQKRFMCQSCVSEYKQVG [C32M]: the abundance fitness is -0.537 ± 0.12.

Consider IMNCCEQCEEYLPSKGAGNNVLVIDGQQKRFCCQSCVSEYKQVG [G9E], for which the abundance fitness was -0.495 ± 0.11. As for IMNCCEQCYEYLPSKGAGNNVLVIDGQQKRFCCQSCVSEYKQVG [G9Y], the abundance fitness is 0.102 ± 0.15. IMSCCEQCGEYLPSKGAGNNVLVIDGQQKRFCCQSCVSEYKQVG [N3S]: the abundance fitness is -0.141 ± 0.079. With IMQCCEQCGEYLPSKGAGNNVLVIDGQQKRFCCQSCVSEYKQVG [N3Q], the abundance fitness was -0.232 ± 0.09. The result for IMACCEQCGEYLPSKGAGNNVLVIDGQQKRFCCQSCVSEYKQVG [N3A] reads -0.09 ± 0.073; that for IMKCCEQCGEYLPSKGAGNNVLVIDGQQKRFCCQSCVSEYKQVG [N3K], -0.231 ± 0.089. On to IMCCCEQCGEYLPSKGAGNNVLVIDGQQKRFCCQSCVSEYKQVG [N3C], for which the abundance fitness is -0.215 ± 0.36.

For the variant IMPCCEQCGEYLPSKGAGNNVLVIDGQQKRFCCQSCVSEYKQVG [N3P], the abundance fitness was -0.345 ± 0.084.

As to IMNCCEQCGEYMPSKGAGNNVLVIDGQQKRFCCQSCVSEYKQVG [L12M], the abundance fitness was -0.46 ± 0.14. Regarding IMNCCEQCGEYTPSKGAGNNVLVIDGQQKRFCCQSCVSEYKQVG [L12T], the abundance fitness is -0.28 ± 0.097. Regarding IMNCCEQCGEYAPSKGAGNNVLVIDGQQKRFCCQSCVSEYKQVG [L12A], the abundance fitness was -0.246 ± 0.091.
